Patent US20120316071A1 (published 2012)
Positions count from the first letter of the chain named. In names and notes the source's numbering stands. Blank lines part the entries; values can stand above or below the binder they belong to.

How the values were obtained:
[1] = biological target: T1, rHuman CD44/Fc Chimera, CF (R&D Systems Cat#3660-CD) (human, UniProt P16070 21-220); assay: ECL (MSD) multispot binding assay, antigen spotted on plate, 20 nM Fab;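 note: purified Fab incubated 1 h at 20 °C on antigen-spotted plate, bound Fab revealed with TAG detection antibody, ECL read, antigen signal divided by same-well blank, ratio ≥4 counted as hit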
T1 construct: Bought recombinant protein; Fc part of the bought chimera not given

[2] = biological target: T2, rHuman IGF-1 sR, (IGF-1 sR), CF (R&D Systems Cat#391-GR) (human, UniProt P08069 31-932); assay: as above
T2 construct: Bought recombinant soluble receptor; also called insulin-like growth factor-1 soluble receptor

[3] = biological target: T3, rHuman HGF R/c-MET/Fc Chimera, CF (R&D Systems Cat#358-MT/CF) (human, UniProt P08581 25-932); assay: as above
T3 construct: Bought recombinant protein; also called HGF R/Fc; hepatocyte growth factor receptor; Fc part of the bought chimera not given
T3 sequence (P08581 25-932, change not shown): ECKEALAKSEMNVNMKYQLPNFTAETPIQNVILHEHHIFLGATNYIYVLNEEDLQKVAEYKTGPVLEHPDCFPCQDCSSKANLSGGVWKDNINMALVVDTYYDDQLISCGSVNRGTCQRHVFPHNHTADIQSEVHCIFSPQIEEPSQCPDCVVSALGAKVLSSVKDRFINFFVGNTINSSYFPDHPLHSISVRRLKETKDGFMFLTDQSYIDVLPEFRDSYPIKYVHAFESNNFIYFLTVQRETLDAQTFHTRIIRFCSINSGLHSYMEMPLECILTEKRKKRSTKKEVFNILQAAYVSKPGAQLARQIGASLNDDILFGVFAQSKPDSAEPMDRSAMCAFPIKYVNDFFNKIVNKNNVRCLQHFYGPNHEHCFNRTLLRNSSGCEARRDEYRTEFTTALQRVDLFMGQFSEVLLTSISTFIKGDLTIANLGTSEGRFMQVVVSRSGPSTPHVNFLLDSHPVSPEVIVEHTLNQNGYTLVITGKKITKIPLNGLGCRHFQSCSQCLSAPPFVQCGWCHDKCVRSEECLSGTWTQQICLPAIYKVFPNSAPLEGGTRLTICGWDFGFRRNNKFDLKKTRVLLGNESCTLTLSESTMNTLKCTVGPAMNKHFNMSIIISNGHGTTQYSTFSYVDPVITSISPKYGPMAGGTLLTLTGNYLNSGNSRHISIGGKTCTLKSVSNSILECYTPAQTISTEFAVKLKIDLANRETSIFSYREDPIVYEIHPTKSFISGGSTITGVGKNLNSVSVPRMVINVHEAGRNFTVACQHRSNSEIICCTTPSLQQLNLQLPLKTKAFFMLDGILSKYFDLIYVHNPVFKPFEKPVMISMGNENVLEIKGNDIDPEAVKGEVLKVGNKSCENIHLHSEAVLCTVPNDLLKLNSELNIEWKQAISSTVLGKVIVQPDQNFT

[4] = biological target: T4, Recombinant Human DLL4 (R&D Systems Cat#1506-D4/CF) (human, UniProt Q9NR61 27-524); assay: as above
T4 construct: Bought recombinant protein; also called delta-like protein 4; rHuman DLL4

[5] = biological target: T5, rHuman ErbB2/Fc Chimera, CF (R&D Systems Cat#1129-ER) (human, UniProt P04626 23-652); assay: as above
T5 construct: Bought recombinant protein; also called human epidermal growth factor 2 receptor; Fc part of the bought chimera not given

[6] = biological target: T6, rHuman EGF R/Fc Chimera, CF (R&D Systems Cat#344-ER) (human, UniProt P00533 25-645); assay: as above
T6 construct: Bought recombinant protein; also called epidermal growth factor receptor; Fc part of the bought chimera not given

[7] = biological target: T7, rHuman Notch-1/Fc Chimera, CF (R&D Systems Cat#3647-TK) (human, UniProt P46531 19-526); assay: as above
T7 construct: Bought recombinant protein; Fc part of the bought chimera not given

[8] = biological target: T8, rHuman P-Cadherin/Fc Chimera, CF (R&D Systems Cat#861-PC) (human, UniProt P22223 108-654); assay: as above
T8 construct: Bought recombinant protein; Fc part of the bought chimera not given

[9] = biological target: T9, Recombinant Human DLL4 (delta-like protein 4) (human, UniProt Q9NR61 27-524); assay: ELISA, DLL4 coated on the plate, Fab at 100 nM, absorbance at 450 nm
T9 construct: also called rHuman DLL4; Delta-like 4

[10] = biological target: T9, Recombinant Human DLL4 (delta-like …); assay: 96-well plate ECL (MSD) assay, DLL4 immobilised, Fab at 10 nM
[11] = biological target: T10, Recombinant Human DLL4 (delta-like protein 4) (human, UniProt Q9NR61 27-524); assay: ELISA, DLL4-coated plate, Fab in solution
T10 construct: Bought recombinant human DLL4 (R&D Systems Cat#1506-D4/CF); also called rHuman DLL4; Delta-like 4

[12] = biological target: T10, Recombinant Human DLL4 (delta-like …); assay: ECL (MSD) binding assay, DLL4 on plate, Fab in solution
[13] = biological target: T11, Recombinant Human DLL4 (delta-like protein 4) (human, UniProt Q9NR61 27-524); assay: ELISA, Fab on plate-coated DLL4
T11 construct: Bought recombinant human DLL4 (R&D Systems Cat#1506-D4/CF); also called rHuman DLL4; Delta-like 4

[14] = biological target: T11, Recombinant Human DLL4 (delta-like …); assay: ECL (MSD) binding assay, Fab on immobilized DLL4
[15] = biological target: T12, Recombinant Human DLL4 (delta-like protein 4) (human, UniProt Q9NR61 27-524); assay: ECL (MSD) binding assay, Fab on immobilised recombinant human DLL4
T12 construct: also called rHuman DLL4; Delta-like 4

[16] = biological target: T12, Recombinant Human DLL4 (delta-like …); assay: ELISA, Fab on coated DLL4, absorbance at 450 nm
[17] = biological target: T13, Recombinant Human DLL4 (R&D Systems Cat#1506-D4/CF) (human, UniProt Q9NR61 27-524); assay: ELISA, Fab on plate-coated DLL4, absorbance at 450 nm
T13 construct: also called rHuman DLL4; delta-like protein 4

[18] = biological target: T13, Recombinant Human DLL4 (R&D Systems …); assay: ECL (MSD) multispot binding assay, Fab on immobilized recombinant human DLL4
[19] = biological target: T12, Recombinant Human DLL4 (delta-like …); assay: ELISA on coated DLL4, Fab at 12.5 nM (2-fold serial dilution)
[20] = biological target: T12, Recombinant Human DLL4 (delta-like …); assay: ELISA on coated DLL4, Fab at 50 nM (2-fold serial dilution)
[21] = biological target: T12, Recombinant Human DLL4 (delta-like …); assay: ELISA on coated DLL4, Fab at 25 nM (2-fold serial dilution)
[22] = biological target: T12, Recombinant Human DLL4 (delta-like …); assay: ELISA on coated DLL4, Fab at 100 nM (2-fold serial dilution)
[23] = biological target: T12, Recombinant Human DLL4 (delta-like …); assay: ELISA on coated DLL4, Fab at 6.25 nM (2-fold serial dilution)
[24] = biological target: T12, Recombinant Human DLL4 (delta-like …); assay: ELISA on coated DLL4, Fab at 3.125 nM (2-fold serial dilution)

B1: Fab VH3-23_IGHD2-21*01>3_IGHJ6*01 H100E/S108P/Y113G/Y111E & V2-13_IGLJ2*01 (Fab, V domains shown)
VH: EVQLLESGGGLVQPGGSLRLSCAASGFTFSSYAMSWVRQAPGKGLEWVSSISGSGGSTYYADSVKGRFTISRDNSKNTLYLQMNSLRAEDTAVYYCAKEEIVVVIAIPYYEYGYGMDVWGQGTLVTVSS
VL: SSELTQDPAVSVALGQTVRITCQGDSLRSYYASWYQQKPGQAPVLVIYGKNNRPSGIPDRFSGSSSGNTASLTITGAQAEDEADYYCNSRDSSGNHLVVFGGGTKLTVL
notes: Fab made in E. coli: VH joined to CH1 (with His and Flag tags, plasmid A) and VL to lambda CL (plasmid E); also called EPG Y111E
- ECL signal/blank ratio [1]: 1.1
- ECL signal/blank ratio [2]: 1.4
- ECL signal/blank ratio [3]: 2.2
- ECL signal/blank ratio [4]: 1.5
- ECL signal/blank ratio [5]: 1.5
- ECL signal/blank ratio [6]: 1.4
- ECL signal/blank ratio [7]: 1.5
- ECL signal/blank ratio [8]: 2.3

B2: Fab VH1-46_IGHD6-6*01_IGHJ1*01 S102A/S103P/S104F/H111F/G56A & L6_IGKJ1*01 S28N/S30D/S31H (Fab, V domains shown)
VH: QVQLVQSGAEVKKPGASVKVSCKASGYTFTSYYMHWVRQAPGQGLEWMGIINPSGASTSYAQKFQGRVTMTRDTSTSTVYMELSSLRSEDTAVYYCAREEYAPFSAEYFQFWGQGTLVTVSS
VL: EIVLTQSPATLSLSPGERATLSCRASQNVDHYLAWYQQKPGQAPRLLIYDASNRATGIPARFSGSGSGTDFTLTISSLEPEDFAVYYCQQRSNWPPWTFGQGTKVEIKR
notes: also called H:APFF G56A & L:NDH
- ELISA Signal [100 nM Fab] [9]: 0.2
- ECL Signal [10 nM Fab] [10]: 71600

B3: Fab VH1-46_IGHD6-6*01_IGHJ1*01 S102A/S103P/S104F/H111F/S54A & L6_IGKJ1*01 S28N/S30D/S31H (Fab, V domains shown)
VH: B2 VH with S54A, A56G
VL: B2 VL
notes: also called H:APFF S54A & L:NDH
- ELISA Signal [100 nM Fab] [9]: 0.08
- ECL Signal [10 nM Fab] [10]: 46700

B4: Fab VH5-51_IGHD5-18*01>3_IGHJ4*01 G100K/G104T G24L & V3-4_IGLJ1*01 (Fab, V domains shown)
VH: EVQLVQSGAEVKKPGESLKISCKLSGYSFTSYWIGWVRQMPGKGLEWMGIIYPGDSDTRYSPSFQGQVTISADKSISTAYLQWSSLKASDTAMYYCARRKYSYTYDYFDYWGQGTLVTVSS
VL: QTVVTQEPSFSVSPGGTVTLTCGLSSGSVSTSYYPSWYQQTPGQAPRTLIYSTNTRSSGVPDRFSGSILGNKAALTITGAQADDESDYYCVLYMGSGISYVFGTGTKVTVL
notes: Fab made in E. coli; also called KT G24L
- ELISA (Signal-Noise) [11]: 0.09
- ECL signal [12]: 19600

B5: Fab VH5-51_IGHD5-18*01>3_IGHJ4*01 G100K/G104T (KT) & V3-4_IGLJ1*01 S52C (Fab, V domains shown)
VH: B4 VH with L24G
VL: B4 VL with S52C
notes: Tested as a Fab (VH-CH1 with His and Flag tags, lambda VL-CL); also called H:KT & L:S52C
- ELISA signal [13]: 0.1
- ECL signal [14]: 64300

B6: Fab VH5-51_IGHD5-18*01>3_IGHJ4*01 G100K/G104T (KT) & V3-4_IGLJ1*01 R56D (Fab, V domains shown)
VH: B4 VH with L24G
VL: B4 VL with R56D
notes: Fab; also called H:KT & L:R56D
- ECL signal [15]: 87400
- ELISA signal [16]: 0.19

B12: Fab VH5-51_IGHD5-18*01>3_IGHJ4*01 G100K/G104T (KT) & V3-4_IGLJ1*01 R56G (Fab, V domains shown)
VH: B4 VH with L24G
VL: B4 VL with R56G
notes: Fab; also called H:KT & L:R56G
- ECL signal [15]: 93700
- ELISA signal [16]: 0.19

B15: Fab VH5-51_IGHD5-18*01>3_IGHJ4*01 G100K/G104T (KT) & V3-4_IGLJ1*01 R56A (Fab, V domains shown)
VH: B4 VH with L24G
VL: B4 VL with R56A
notes: Fab; also called H:KT & L:R56A
- ECL signal [15]: 83900
- ELISA signal [16]: 0.27
- ELISA signal [19]: 0.212
- ELISA signal [20]: 0.239
- ELISA signal [21]: 0.227
- ELISA signal [22]: 0.251
- ELISA signal [23]: 0.2
- ELISA signal [24]: 0.213

Further lines, results first:

- ELISA (Signal-Noise) [11]: 0.28
- ECL signal [12]: 32300
B7: Fab VH5-51_IGHD5-18*01>3_IGHJ4*01 G100K/G104T S28K & V3-4_IGLJ1*01 (Fab, V domains shown)
VH: B4 VH with L24G, S28K
VL: B4 VL
notes: Fab made in E. coli; also called KT S28K

- ELISA signal [13]: 0.13
- ECL signal [14]: 94300
B8: Fab VH5-51_IGHD5-18*01>3_IGHJ4*01 G100K/G104T (KT) & V3-4_IGLJ1*01 R56I (Fab, V domains shown)
VH: B4 VH with L24G
VL: B4 VL with R56I
notes: Tested as a Fab (VH-CH1 with His and Flag tags, lambda VL-CL); also called H:KT & L:R56I

- ELISA (Signal-Noise) [17]: 0.01
- ECL Signal/Blank [18]: 30.6
B9: Fab VH5-51_IGHD5-18*01>3_IGHJ4*01 G100K/G104T I51A & V3-4_IGLJ1*01 (Fab, V domains shown)
VH: B4 VH with L24G, I51A
VL: B4 VL
notes: Tested as Fab; CH1 with His6/Flag tags (plasmid A) and lambda CL (plasmid E) come from the expression vectors; also called KT I51A

- ELISA (Signal-Noise) [11]: 0.06
- ECL signal [12]: 4200
B10: Fab VH5-51_IGHD5-18*01>3_IGHJ4*01 G100K/G104T G24R & V3-4_IGLJ1*01 (Fab, V domains shown)
VH: B4 VH with L24R
VL: B4 VL
notes: Fab made in E. coli; also called KT G24R

- ELISA (Signal-Noise) [17]: 0
- ECL Signal/Blank [18]: 57.7
B11: Fab VH5-51_IGHD5-18*01>3_IGHJ4*01 G100K/G104T P53A & V3-4_IGLJ1*01 (Fab, V domains shown)
VH: B4 VH with L24G, P53A
VL: B4 VL
notes: Tested as Fab; CH1 with His6/Flag tags (plasmid A) and lambda CL (plasmid E) come from the expression vectors; also called KT P53A

- ELISA (Signal-Noise) [17]: 0.02
- ECL Signal/Blank [18]: 40.9
B13: Fab VH5-51_IGHD5-18*01>3_IGHJ4*01 G100K/G104T I50A & V3-4_IGLJ1*01 (Fab, V domains shown)
VH: B4 VH with L24G, I50A
VL: B4 VL
notes: Tested as Fab; CH1 with His6/Flag tags (plasmid A) and lambda CL (plasmid E) come from the expression vectors; also called KT I50A

- ELISA signal [13]: 0.15
- ECL signal [14]: 85900
B14: Fab VH5-51_IGHD5-18*01>3_IGHJ4*01 G100K/G104T (KT) & V3-4_IGLJ1*01 S52R (Fab, V domains shown)
VH: B4 VH with L24G
VL: B4 VL with S52R
notes: Tested as a Fab (VH-CH1 with His and Flag tags, lambda VL-CL); also called H:KT & L:S52R
